{"source": "paper PMC12444091", "proteins": {"B1": {"name": "HSPB1(124-131) peptide L2, Ac-HEERQDEA-NH2 (Homo sapiens; H131A) (peptide)", "chain": "HEERQDEA"}, "B2": {"name": "HSPB1(124-131) peptide L4, Ac-HEARQDEH-NH2 (Homo sapiens; E126A) (peptide)", "chain": "HEARQDEH"}, "B3": {"name": "HSPB1(124-131) peptide L3, Ac-HEARQDEA-NH2 (Homo sapiens; E126A;H131A) (peptide)", "chain": "HEARQDEA"}}, "experiment_in_all_cases": "potentiometry", "conditions_in_all_cases": "25 °C (± 0.2 °C); 0.1 M (KCl); none (4 mM HCl, 0.1 M KCl); peptide 0.001 M; metal-free peptide, unstructured (random-coil CD spectrum)", "key": {"[1]": {"molecular_target": "Asp129 (UniProt position 129, …)"}, "[2]": {"molecular_target": "His124 (UniProt position 124, …)"}, "[3]": {"molecular_target": "Asp129 (UniProt position 129, …)", "remark": "listed apart in the source"}, "[4]": {"molecular_target": "Asp129 (UniProt position 129, …)", "remark": "listed apart in the source"}, "[5]": {"molecular_target": "His124 (UniProt position 124, …)", "remark": "listed apart in the source"}}}
{"protein": "B1", "values": [{"measurement": "pKa", "setting": "[1]", "result": 3.60}, {"measurement": "pKa", "setting": "[2]", "result": 7.00}]}
{"protein": "B2", "values": [{"measurement": "pKa", "setting": "[3]", "result": 3.26}]}
{"protein": "B3", "values": [{"measurement": "pKa", "setting": "[4]", "result": 3.47}, {"measurement": "pKa", "setting": "[5]", "result": 6.71}]}
